Experimental findings from patent US20250051465A1 (published 2025) are described below.

T1: human LEPR extracellular domain expressed with a C-terminal mouse IgG2a Fc tag (hLEPR.mFc) (human)
T1 construct: also called dimeric human LEPR
T1 chain: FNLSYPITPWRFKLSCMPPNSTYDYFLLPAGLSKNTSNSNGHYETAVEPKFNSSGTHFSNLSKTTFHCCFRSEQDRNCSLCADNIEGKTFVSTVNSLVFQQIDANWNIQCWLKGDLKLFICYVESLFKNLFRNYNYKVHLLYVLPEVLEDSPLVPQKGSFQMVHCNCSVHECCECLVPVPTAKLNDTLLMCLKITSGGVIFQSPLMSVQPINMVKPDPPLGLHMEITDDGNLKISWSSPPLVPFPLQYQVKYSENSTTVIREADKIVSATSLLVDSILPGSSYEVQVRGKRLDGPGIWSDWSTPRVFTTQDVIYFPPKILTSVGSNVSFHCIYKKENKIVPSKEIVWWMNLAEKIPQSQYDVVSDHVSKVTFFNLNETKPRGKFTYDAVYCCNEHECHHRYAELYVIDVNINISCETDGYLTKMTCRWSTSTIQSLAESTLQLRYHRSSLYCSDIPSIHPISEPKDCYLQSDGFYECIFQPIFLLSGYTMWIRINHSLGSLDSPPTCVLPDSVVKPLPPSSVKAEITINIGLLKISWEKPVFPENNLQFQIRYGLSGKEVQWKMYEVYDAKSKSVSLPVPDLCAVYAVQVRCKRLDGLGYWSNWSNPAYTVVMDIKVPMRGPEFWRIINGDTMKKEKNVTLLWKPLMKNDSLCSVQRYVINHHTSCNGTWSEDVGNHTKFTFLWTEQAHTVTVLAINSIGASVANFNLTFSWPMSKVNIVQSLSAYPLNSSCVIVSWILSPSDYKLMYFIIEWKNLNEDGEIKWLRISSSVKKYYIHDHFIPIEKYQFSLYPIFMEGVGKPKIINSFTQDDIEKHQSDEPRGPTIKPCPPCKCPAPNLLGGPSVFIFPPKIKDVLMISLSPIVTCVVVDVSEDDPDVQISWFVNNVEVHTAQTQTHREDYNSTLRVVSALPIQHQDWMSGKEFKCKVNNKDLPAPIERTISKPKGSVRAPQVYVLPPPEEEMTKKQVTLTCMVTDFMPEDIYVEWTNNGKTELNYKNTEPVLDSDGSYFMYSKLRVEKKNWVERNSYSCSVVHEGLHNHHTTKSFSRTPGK

B1: H4H18417P2 (antibody, human IgG4, V domains shown)
VH: QVQLVESGGGVVQPGRSLRLSCAASGFTFSTYGMHWVRQAPGKGLEWVSVISYDESNKYYADSVKGRFTISRDNSKNALYLQMNSLRNEDTAVYYCARDRPFGLVTGWFDPWGQGTLVTVSS
VL: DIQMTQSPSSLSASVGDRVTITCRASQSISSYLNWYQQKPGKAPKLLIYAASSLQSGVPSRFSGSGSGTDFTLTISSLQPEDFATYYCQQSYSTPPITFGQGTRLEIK
notes: Fully human antibody with human IgG4 Fc (H4H prefix)
B2: H4H18445P2 (antibody, human IgG4, V domains shown)
VH: QVQLQESGPGLVKPSQTLSLTCTVSGGSISSGGDYWSWIRQLPGKGLEWIGYIYYSGSAYYNPSLKSRGTISIDTSKNQFSLKLTSVTAADTAVYFCVKLRFLEWFLGGWFGPWGQGTLVTVSS
VL: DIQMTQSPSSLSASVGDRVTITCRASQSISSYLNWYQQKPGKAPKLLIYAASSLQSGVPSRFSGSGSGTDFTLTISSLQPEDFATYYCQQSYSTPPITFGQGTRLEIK
notes: as for B1
B3: H4H16650P2 (antibody, human IgG4, V domains shown)
VH: QVQLVESGGGVVQPGKSLRLSCVASGFTFSSDAMYWVRQAPGKGLEWVAVIYYDGNYQYYEDSVKGRFTISRDNSQNTLDLQMNSLRVDDTAVYFCARLNWDYWYLDLWGRGTLVTVSS
VL: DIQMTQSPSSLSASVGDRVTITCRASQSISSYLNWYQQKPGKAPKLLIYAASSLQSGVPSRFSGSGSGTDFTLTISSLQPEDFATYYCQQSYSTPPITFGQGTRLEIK
notes: as for B1
B4: H4H16679P2 (antibody, human IgG4, V domains shown)
VH: QVQLVESGGGVVQPGRSLRLSCTASGFTFSSYAMYWVRQAPGKGLEWVSVIYYDGSYKYYADSVKGRFTISRDNSKNTLYLQMDSLRAEDTAVYYCASYNWNYWYFDFWGRGTLVTVSS
VL: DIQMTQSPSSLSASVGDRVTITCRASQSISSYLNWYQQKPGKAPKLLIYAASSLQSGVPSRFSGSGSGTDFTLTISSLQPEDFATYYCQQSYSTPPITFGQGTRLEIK
notes: as for B1
B5: H4H18438P2 (antibody, human IgG4, V domains shown)
VH: QVQLVESGGGVVQPGRSLRLSCAASGFSFNTYGMHWVRQAPGKGLEWVTIIWYDGSIKYYADSVKGRFTISRDNSKNTLYLQMNSLRAEDTAVYYCARGGYSGYLYFDYWGQGTLVTVSS
VL: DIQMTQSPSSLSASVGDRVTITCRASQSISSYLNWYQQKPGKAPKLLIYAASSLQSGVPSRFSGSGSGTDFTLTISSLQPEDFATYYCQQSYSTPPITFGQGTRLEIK
notes: as for B1
B6: H4H18449P2 (antibody, human IgG4, V domains shown)
VH: EVQLVESGGGLVQPGGSLRLSCVASGFTFNKYDMHWVRQTTGKGLEWVSGIDTDGDTYYPGSVKGRFTISRENAENSLYLQMNGLRVGDTAVYYCARWPWSGFYGAFDIWGQGTMVTVSS
VL: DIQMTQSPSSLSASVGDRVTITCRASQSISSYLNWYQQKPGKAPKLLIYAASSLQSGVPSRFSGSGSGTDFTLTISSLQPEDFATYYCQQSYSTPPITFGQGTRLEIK
notes: as for B1

The first test deals with T2, Macaca fascicularis LEPR extracellular domain expressed with a C-terminal myc-myc-hexahistidine tag … (Macaca fascicularis, UniProt Q9MYL0 22-837 (rhesus entry)).
T2 construct: also called mfLEP.MMH
Description: SPR, captured mAb, 37C. Here is the method:
(§1) Equilibrium dissociation constants (KD values) for LEPR binding to purified anti-LEPR monoclonal antibodies were determined using a real-time surface plasmon resonance biosensor using a Biacore 4000 instrument. All binding studies were performed in 10 mM HEPES, 150 mM NaCl, 3 mM EDTA, and 0.05% v/v Surfactant Tween-20, pH 7.4 (HBS-ET) running buffer at 25° C. and 37° C. The Biacore sensor surface was first derivatized by amine coupling with a monoclonal mouse anti-human Fc antibody (GE, #BR-1008-39) to capture anti-LEPR monoclonal antibodies. […] Kinetic association (kₐ) and dissociation (kd) rate constants were determined by fitting the real-time binding sensorgrams to a 1:1 binding model with mass transport limitation using Scrubber 2.0c curve-fitting software. Binding dissociation equilibrium constants (KD) and dissociative half-lives (t½) were calculated from the kinetic rate constants as: […]
As to B1, the “100 nM mfLEPR.MMH Bound (RU)” value came out at 28 RU, the Kd stood at 217 nM, the koff was found to be 0.0263 s⁻¹ and the kon came out at 122000 M⁻¹ s⁻¹. Moreover, the t½ turned out to be 0.4 min.

In the case of B2, the “100 nM mfLEPR.MMH Bound (RU)” value is 48 RU, the Kd worked out at 264 nM, the koff turned out to be 0.019 s⁻¹ and the kon stood at 71700 M⁻¹ s⁻¹. The molecule further returned a t½ of 0.6 min.

B3: the “100 nM mfLEPR.MMH Bound (RU)” value came to 134 RU, binding was characterised by a dissociation constant (Kd) of 5.76 nM, the koff turned out to be 0.0007 s⁻¹ and the kon came out at 122000 M⁻¹ s⁻¹. Further, the t½ turned out to be 16 min.

Turning to B4, the “100 nM mfLEPR.MMH Bound (RU)” value was 104 RU, the Kd was 10.4 nM, the koff was 0.000677 s⁻¹ and the kon worked out at 64900 M⁻¹ s⁻¹. For the same molecule, the t½ stood at 17 min.

In the next test the target is T1, human LEPR extracellular domain …. Description: SPR, captured mAb, 37C. The procedure:
as §1
Consider B1, for which the “100 nM hLEPR-mFc Bound (RU)” value was 111 RU, the Kd is 5.64 nM, the koff amounted to 0.00105 s⁻¹ and the kon worked out at 185000 M⁻¹ s⁻¹. Moreover, the t½ amounted to 11 min.

As to B5, the “100 nM hLEPR-mFc Bound (RU)” value was found to be 82 RU, the Kd amounted to 8.53 nM, the koff worked out at 0.000598 s⁻¹ and the kon worked out at 70200 M⁻¹ s⁻¹. Besides, the t½ was 19 min.

Regarding B2, the “100 nM hLEPR-mFc Bound (RU)” value is 104 RU, the Kd was 3.89 nM, the koff is 0.000608 s⁻¹ and the kon came out at 156000 M⁻¹ s⁻¹. The molecule further gave a t½ of 19 min.

For B6, the “100 nM hLEPR-mFc Bound (RU)” value was found to be 148 RU, binding was characterised by a dissociation constant (Kd) of 1.26 nM, the koff stood at 0.000168 s⁻¹ and the association rate constant (kon) is 133000 M⁻¹ s⁻¹. For the same molecule, the t½ came to 69 min.

With B3, the “100 nM hLEPR-mFc Bound (RU)” value stood at 145 RU, the Kd came to 1.79 nM, the koff was determined as 0.00028 s⁻¹ and the kon came to 157000 M⁻¹ s⁻¹. The molecule also had a t½ of 41 min.

Consider B4, for which the “100 nM hLEPR-mFc Bound (RU)” value was 116 RU, the Kd turned out to be 2.56 nM, the koff came to 0.00031 s⁻¹ and the kon was found to be 121000 M⁻¹ s⁻¹. Further, the t½ was 37 min.

Another test addresses T3, human LEPR extracellular domain expressed with a C-terminal myc-myc-hexahistidine tag (hLEPR.mmh) (human, UniProt P48357 22-839).
T3 construct: also called human LEPR-MMH; monomeric human LEPR
Put plainly: SPR, captured mAb, 37C. Here is the method: as §1
In the case of B1, the “100 nM hLEPR-MMH Bound (RU)” value amounted to 22 RU, the Kd is 233 nM, the koff was 0.018 s⁻¹ and the kon was 77000 M⁻¹ s⁻¹. Also, the t½ worked out at 0.6 min.

Take B5: the “100 nM hLEPR-MMH Bound (RU)” value was found to be 32 RU; the affinity, expressed as Kd, was 170 nM; the koff was found to be 0.00576 s⁻¹; the kon turned out to be 33800 M⁻¹ s⁻¹. The t½ worked out at 2 min.

For B2, the “100 nM hLEPR-MMH Bound (RU)” value is 38 RU; the affinity, expressed as Kd, was 326 nM; the koff turned out to be 0.0168 s⁻¹; the kon came out at 51300 M⁻¹ s⁻¹. Besides, the t½ was determined as 0.7 min.

Take B6: the “100 nM hLEPR-MMH Bound (RU)” value was 73 RU, the Kd worked out at 20.7 nM, the koff turned out to be 0.000815 s⁻¹ and the kon worked out at 39400 M⁻¹ s⁻¹. The same molecule displayed a t½ of 14 min.

As for B3, the “100 nM hLEPR-MMH Bound (RU)” value is 77 RU, binding was characterised by a dissociation constant (Kd) of 19.8 nM, the koff was 0.000958 s⁻¹ and the kon is 48500 M⁻¹ s⁻¹. For the same molecule, the t½ was determined as 12 min.

Turning to B4, the “100 nM hLEPR-MMH Bound (RU)” value stood at 61 RU, binding was put at a Kd of 21.9 nM, the koff stood at 0.000842 s⁻¹ and the kon stood at 38400 M⁻¹ s⁻¹. This molecule also had a t½ of 14 min.

The target in another test is rat LEPR extracellular domain expressed with a C-terminal myc-myc-hexahistidine tag (rLEPR.mmh) (rat, UniProt Q62959 22-839). Put plainly: SPR, captured mAb, 25C and 37C. A general note: In SPR one partner is held on a chip, and binding of the other changes the refractive index at the surface.
rat LEPR extracellular domain expressed with a C-terminal myc-myc-hexahistidine tag (rLEPR.mmh), sequence (Q62959 other isoform, or with tags, fused parts or gaps): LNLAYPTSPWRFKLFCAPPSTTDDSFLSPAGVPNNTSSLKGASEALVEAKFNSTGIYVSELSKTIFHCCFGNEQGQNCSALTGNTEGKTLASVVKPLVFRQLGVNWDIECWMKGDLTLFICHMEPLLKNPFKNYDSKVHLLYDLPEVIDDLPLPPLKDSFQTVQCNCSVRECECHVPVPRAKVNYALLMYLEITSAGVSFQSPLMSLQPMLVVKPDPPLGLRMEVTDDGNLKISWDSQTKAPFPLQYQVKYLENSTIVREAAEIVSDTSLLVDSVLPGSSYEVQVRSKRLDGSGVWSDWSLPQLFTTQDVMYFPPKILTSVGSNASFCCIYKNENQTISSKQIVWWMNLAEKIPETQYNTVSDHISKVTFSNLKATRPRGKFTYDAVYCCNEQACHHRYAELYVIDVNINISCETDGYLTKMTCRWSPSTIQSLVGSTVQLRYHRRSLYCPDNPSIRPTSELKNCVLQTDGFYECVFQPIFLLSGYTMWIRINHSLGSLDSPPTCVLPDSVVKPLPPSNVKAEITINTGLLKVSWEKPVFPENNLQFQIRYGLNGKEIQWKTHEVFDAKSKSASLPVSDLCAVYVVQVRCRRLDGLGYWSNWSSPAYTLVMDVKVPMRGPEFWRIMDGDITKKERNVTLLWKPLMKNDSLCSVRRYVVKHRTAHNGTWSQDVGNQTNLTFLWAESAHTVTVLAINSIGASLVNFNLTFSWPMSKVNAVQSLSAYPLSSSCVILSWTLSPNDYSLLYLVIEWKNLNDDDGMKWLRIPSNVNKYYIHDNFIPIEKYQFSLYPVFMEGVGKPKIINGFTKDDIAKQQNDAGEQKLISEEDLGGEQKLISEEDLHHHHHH
As for B1, the binding result is “no binding”.

For B5, the binding result was “no binding”.

As for B2, the binding result is given as “no binding”.

Take B6: the binding result was “no binding”.

For B3, the binding result is given as “no binding”.

For B4, the binding result is “no binding”.

The target of a further test is mouse LEPR extracellular domain expressed with a C-terminal myc-myc-hexahistidine tag (mLEPR.mmh) (mouse, UniProt P48356 22-839). Description: SPR, captured mAb, 25C and 37C.
mouse LEPR extracellular domain expressed with a C-terminal myc-myc-hexahistidine tag (mLEPR.mmh), sequence (P48356 other isoform, or with tags, fused parts or gaps): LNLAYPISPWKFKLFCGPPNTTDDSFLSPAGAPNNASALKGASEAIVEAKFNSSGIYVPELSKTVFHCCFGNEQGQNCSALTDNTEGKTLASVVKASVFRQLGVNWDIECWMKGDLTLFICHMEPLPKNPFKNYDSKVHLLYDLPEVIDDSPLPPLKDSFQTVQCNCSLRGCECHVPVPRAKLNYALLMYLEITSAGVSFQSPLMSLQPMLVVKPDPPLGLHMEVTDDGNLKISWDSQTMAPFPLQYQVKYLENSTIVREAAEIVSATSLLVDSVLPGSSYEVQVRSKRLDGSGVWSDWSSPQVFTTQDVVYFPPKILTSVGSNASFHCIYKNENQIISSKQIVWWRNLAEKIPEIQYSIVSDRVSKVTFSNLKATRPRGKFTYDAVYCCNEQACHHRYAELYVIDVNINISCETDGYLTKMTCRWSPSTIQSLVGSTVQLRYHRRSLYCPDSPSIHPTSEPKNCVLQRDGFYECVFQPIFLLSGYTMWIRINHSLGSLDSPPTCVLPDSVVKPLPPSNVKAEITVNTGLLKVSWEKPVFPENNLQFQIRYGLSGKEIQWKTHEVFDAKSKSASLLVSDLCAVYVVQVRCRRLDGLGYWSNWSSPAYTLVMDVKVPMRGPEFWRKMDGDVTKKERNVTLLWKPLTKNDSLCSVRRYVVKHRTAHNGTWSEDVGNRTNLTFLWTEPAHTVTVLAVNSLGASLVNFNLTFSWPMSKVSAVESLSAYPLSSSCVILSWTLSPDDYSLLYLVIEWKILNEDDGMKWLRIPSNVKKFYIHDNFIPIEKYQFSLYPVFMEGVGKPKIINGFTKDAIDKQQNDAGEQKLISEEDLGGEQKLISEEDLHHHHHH
Turning to B1, the binding result was “no binding”.

As for B5, the binding result was “no binding”.

On to B2, for which the binding result is on record as “no binding”.

Take B6: the binding result is on record as “no binding”.

B3: the binding result was “no binding”.

Regarding B4, the binding result is reported as “no binding”.

Another test has as its target T4, extracellular domain portion of LEPR protein expressed with a C-terminal human Fc tag (hLEPR.hFc) (human).
T4 construct: also called dimeric human LEPR
Put plainly: blocking ELISA: 10 nM hLEPR.hFc to coated hLeptin, 500 nM Ab. The procedure:
These antibody-protein or protein-protein complexes were then incubated for 1.5 hour at room temperature (RT). […] Samples were developed with a TMB solution (BD Biosciences, #555214; substrate A and B mixed at 1:1 ratio as per manufacturer's instructions) to produce a colorimetric reaction and then neutralized with 1M sulfuric acid before measuring absorbance at 450 nm on a Victor X5 plate reader.
Data analysis was performed using a sigmoidal dose-response model within Prism™ software (GraphPad). […] In the calculation, binding signal of 10 nM of hLEPR.hFc without the presence of the antibody was referenced as 100% binding or 0% blocking; and the baseline signal of buffer alone without the presence of hLEPR.hFc was referenced as 0% binding or 100% blocking.
On the technique in general: An ELISA detects its analyte on a solid surface through an enzyme-linked reagent.
For the molecule B1, the “% blockade” value was 16%.

In the case of B5, the “% blockade” value stood at 15%.

Regarding B2, the “% blockade” value came to 28%.

With B6, the “% blockade” value amounted to 8%.

B3: the “% blockade” value was -7%.

Take B4: the “% blockade” value came to 7%.

A further test addresses T3, human LEPR extracellular domain …. Description: Luminex, myc-captured full length extracellular domain. The procedure: Aliquots of microspheres with immobilized anti-myc monoclonal antibodies, prepared as described above, were added individually to 1 mL of the each of these protein supernatants. The microspheres were gently mixed, incubated for two hours at 25° C., washed twice with 1 mL of DBPS, centrifuged to remove the supernatant and finally resuspended in 1 mL of DPBS buffer. Forty-eight μL of anti-myc IgG coupled microspheres from individual reactions with full length human LEPR and with each of the human LEPR domain proteins were withdrawn and mixed together in 3.6 mL of PBS+20 mg/mL BSA+0.05% sodium azide (blocking buffer).
From this mixed pool, 75 μL of microspheres were plated per well on a 96 well filter plate (Millipore, Cat. No: MSBVN1250) and mixed with 25 μL of individual anti-human LEPR monoclonal antibodies (0.5 or 5 µg/mL), incubated for two hours at 25° C. and then washed twice with 200 μL of DPBS with 0.05% Tween 20 (washing buffer). […] After 30 minutes, the samples were washed twice with 200 μL of washing buffer and resuspended in 150 μL of wash buffer. The Median Fluorescence intensity (MFI) of the microspheres was measured in a Luminex Analyzer.
B1 gave an MFI of 4890 MFI.

In turn, B5 yielded an MFI of 6250 MFI.

B2 came in with an MFI of 6570 MFI.

Take B6: the MFI was 7980 MFI.

Regarding B3, the MFI was determined as 7600 MFI.

Regarding B4, the MFI turned out to be 7510 MFI.

As a reminder, the Kd is a measure of binding affinity in units of concentration. Higher therefore signals weaker binding. What is called koff is the first-order rate constant of dissociation. Low values mean a long-lived complex, high ones a short-lived complex. As a reminder, the kon is the rate constant with which the complex forms. Low values mean slow association, high ones fast association. As usually defined, the t½ is the time in which the quantity being followed falls by half.
